Results: patent publication US20240002497A1 (Merck Sharp & Dohme, published 2024)

Key:
huNav1.7α+β1 [1] = target: T1, huNav1.7α+β1 (human, UniProt Q15858 1-1988; Q07699 19-218); assay: cell-based or functional assay
huNav1.7α [2] = target: T2, huNav1.7α (human, UniProt Q15858 1-1988); assay: cell-based or functional assay
rhNav1.7α+β1-β2-β3 [3] = target: T3, rhNav1.7α+β1-β2-β3 (rhesus monkey α subunit with human β …); assay: cell-based or functional assay
rhNav1.7α = rhNav1.7α (rhesus monkey, UniProt Q15858 1-1988 (human entry)); assay: cell-based or functional assay
rhNav1.7α+β1-β2-β3 [4] = target: T3, rhNav1.7α+β1-β2-β3; assay: binding FACS, CHO FlpIn cells
huNav1.7α [5] = target: T2, huNav1.7α; assay: binding FACS, HEKa cells
huNav1.7α+β1 [6] = target: T1, huNav1.7α+β1; assay: binding FACS, HEKa/β1 cells
[7] = target: T4, huNav1.7α + β1-β2-β3 (human Nav1.7α co-expressed with human Navβ1, Navβ2 and Navβ3 on cells) (human); assay: binding FACS, CHO FlpIn cells
T4 construct: also called huNav1.7-beta1-beta2-beta3; CHO FlpIn huNav1.7α + β1-β2-β3
Summary of the method: (§1)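 Flow cytometry read-out of anti-Flag signal on propidium iodide-negative cells measured ISVD binding. Purified FLAG3-tagged ISVD, diluted in PBS with 10% FBS and NaN₃, was applied to the cells for 30 minutes at 4° C.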

[8] = target: T5, rhNav1.7α + β1-β2-β3 (rhesus Nav1.7α co-expressed with Navβ1, Navβ2 and Navβ3 on cells) (rhesus monkey (α subunit); β subunits …); assay: binding FACS, CHO FlpIn cells
T5 construct: also called rhNav1.7-beta1-beta2-beta3; CHO FlpIn rhNav1.7α + β1-β2-β3
Summary of the method: as §1

[9] = target: T6, huNav1.7α on HEK cells (without β subunits) (human, UniProt Q15858 1-1988); assay: binding FACS, HEK cells (HEKa)
T6 construct: also called HEKa huNav1.7α

[10] = target: huNav1.7α + β1 on HEK cells (human, UniProt Q15858 1-1988; Q07699 19-218); assay: binding FACS, HEK cells (HEKa/b1)

Binder	single pulse IC50 (huNav1.7α+β1 [1])	2-pulse IC50 [M], P1 (huNav1.7α [2])	2-pulse IC50 [M], P2 (huNav1.7α [2])	single pulse IC50 (rhNav1.7α+β1-β2-β3 [3])	2-pulse IC50 [M], P1 (rhNav1.7α)	2-pulse IC50 [M], P2 (rhNav1.7α)	EC50 (rhNav1.7α+β1-β2-β3 [4])	EC50 (huNav1.7α [5])	EC50 (huNav1.7α+β1 [6])	EC50 [7]	EC50 [8]	EC50 [9]	EC50 [10]
F010300477 (VHH, vs F0103275B05: A94W) VHH: EVQLVESGGGLVQPGGSLRLSCAASGSIFNINSMAWYRRAPGKQRELVASSTNGGSTNYADSVKGRFTISRDNAKRVYLQMNSLTPEDTAVYYCNWLLQPSIYDISRTYWGQGTLVTVSS	96 nM	2e-06 M	2e-06 M	1200 nM	3e-06 M	1e-06 M	170 nM						
F010300948 (VHH, vs F0103275B05: S27P, I28V, S33R, N53P, N93R, A94W, T101I) VHH: EVQLVESGGGLVQPGGSLRLSCAASGPVFNINRMAWYRRAPGKQRELVASSTPGGSTNYADSVKGRFTISRDNAKRVYLQMNSLTPEDTAVYYCRWLLQPSIYDISRIYWGQGTLVTVSS	320 nM			58 nM			20 nM	69 nM	68 nM				
F010301654 (VHH, also called F0103275B05(L11V, S33R, R39Q, S50Y, S56D, T83R, V89L, N93R)) VHH: EVQLVESGGGVVQPGGSLRLSCAASGSIFNINRMAWYRQAPGKQRELVAYSTNGGDTNYADSVKGRFTISRDNAKRVYLQMNSLRPEDTALYYCRALLQPSIYDISRTYWGQGTLVTVSS										32 nM	18 nM	18 nM	25 nM
F010300631 (VHH, vs F0103275B05: S27P, I28V, S50Y, N53P, N93R) VHH: EVQLVESGGGLVQPGGSLRLSCAASGPVFNINSMAWYRRAPGKQRELVAYSTPGGSTNYADSVKGRFTISRDNAKRVYLQMNSLTPEDTAVYYCRALLQPSIYDISRTYWGQGTLVTVSS	73 nM	1e-06 M	8e-07 M	170 nM	2e-06 M	8e-07 M	45 nM						
F010301652 (VHH, also called F0103275B05(L11V, S33R, S50Y, S56D, R76N, T83R, V89L, N93R)) VHH: EVQLVESGGGVVQPGGSLRLSCAASGSIFNINRMAWYRRAPGKQRELVAYSTNGGDTNYADSVKGRFTISRDNAKNVYLQMNSLRPEDTALYYCRALLQPSIYDISRTYWGQGTLVTVSS										61 nM	24 nM	24 nM	38 nM
F010300684 (VHH, vs F0103275B05: S27P, I28V, I31W, N53P, N93R, T101I) VHH: EVQLVESGGGLVQPGGSLRLSCAASGPVFNWNSMAWYRRAPGKQRELVASSTPGGSTNYADSVKGRFTISRDNAKRVYLQMNSLTPEDTAVYYCRALLQPSIYDISRIYWGQGTLVTVSS	200 nM	2e-06 M	2e-06 M	210 nM	7e-06 M	1e-06 M	50 nM						
F010300900 (VHH, vs F0103275B05: S27P, I28V, S33R, N53P, S56D, N93R, A94W, T101I) VHH: EVQLVESGGGLVQPGGSLRLSCAASGPVFNINRMAWYRRAPGKQRELVASSTPGGDTNYADSVKGRFTISRDNAKRVYLQMNSLTPEDTAVYYCRWLLQPSIYDISRIYWGQGTLVTVSS	200 nM			36 nM			25 nM	20 nM	70 nM				
F010301655 (VHH, also called F0103275B05(L11V, S33R, R39Q, S50Y, S56D, R76N, T83R, V89L, N93R)) VHH: EVQLVESGGGVVQPGGSLRLSCAASGSIFNINRMAWYRQAPGKQRELVAYSTNGGDTNYADSVKGRFTISRDNAKNVYLQMNSLRPEDTALYYCRALLQPSIYDISRTYWGQGTLVTVSS										46 nM	26 nM	19 nM	28 nM
F010301653 (VHH, also called F0103275B05(L11V, S33R, S50Y, S56D, T83R, V89L, N93R)) VHH: EVQLVESGGGVVQPGGSLRLSCAASGSIFNINRMAWYRRAPGKQRELVAYSTNGGDTNYADSVKGRFTISRDNAKRVYLQMNSLRPEDTALYYCRALLQPSIYDISRTYWGQGTLVTVSS										36 nM	16 nM	15 nM	29 nM
F010300990 (VHH, vs F0103275B05: S27P, I28V, S33R, S50Y, N53P, T101I) VHH: EVQLVESGGGLVQPGGSLRLSCAASGPVFNINRMAWYRRAPGKQRELVAYSTPGGSTNYADSVKGRFTISRDNAKRVYLQMNSLTPEDTAVYYCNALLQPSIYDISRIYWGQGTLVTVSS	250 nM			100 nM			38 nM	4.3 nM	65 nM				
